The results in this text go back to article doi:10.1101/388470 (bioRxiv, 2018).

Series [1] deals with the molecule itself. The experiment in a line: co-sedimentation.
For series [2], the target named is T1, Cdc45-5FLAG (S. cerevisiae), Q08032.
T1 chain: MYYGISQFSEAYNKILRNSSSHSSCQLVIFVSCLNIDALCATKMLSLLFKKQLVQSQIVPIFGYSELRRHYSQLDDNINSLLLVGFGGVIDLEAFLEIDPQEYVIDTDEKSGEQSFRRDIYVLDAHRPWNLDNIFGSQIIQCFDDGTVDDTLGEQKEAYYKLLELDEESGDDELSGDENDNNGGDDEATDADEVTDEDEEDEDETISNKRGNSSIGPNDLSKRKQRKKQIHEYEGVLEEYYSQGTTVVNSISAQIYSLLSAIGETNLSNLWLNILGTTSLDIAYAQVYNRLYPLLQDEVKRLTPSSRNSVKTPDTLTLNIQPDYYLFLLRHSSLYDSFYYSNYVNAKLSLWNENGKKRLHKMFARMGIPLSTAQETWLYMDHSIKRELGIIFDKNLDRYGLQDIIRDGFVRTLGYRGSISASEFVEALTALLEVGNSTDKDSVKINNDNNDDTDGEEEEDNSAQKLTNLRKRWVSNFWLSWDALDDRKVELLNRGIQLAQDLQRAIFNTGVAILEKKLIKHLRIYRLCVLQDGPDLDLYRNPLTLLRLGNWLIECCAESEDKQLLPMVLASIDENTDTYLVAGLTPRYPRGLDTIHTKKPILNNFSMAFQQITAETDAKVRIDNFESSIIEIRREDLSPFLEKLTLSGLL
The series is described as follows: co-sedimentation. To be noted: remark: other sources report otherwise.

B1: Psf2-5FLAG (natural protein)
chain: MSLPAHLQQTFSPEEIQFIVENEPIKIFPRITTRQKIRGDDRGTGNHTRWQLITTDDKALNNMVAMRSTEVVLWIALLLKQQSKCSIVAPQWLTTKELDRKIQYEKTHPDRFSELPWNWLVLARILFNKAKDDFHDPIHELRGKIQDLREIRQIKVLKGLKYLNESHLQLDNLSLLEINELRPFITEIMDKLREIHTASLTAGTENDEEEFNI
For the molecule B1, the “stoichiometry N” value in series [1] turned out to be 2.

B2: Cdc45-5FLAG, Q08032 1-650 (natural protein)
chain: MYYGISQFSEAYNKILRNSSSHSSCQLVIFVSCLNIDALCATKMLSLLFKKQLVQSQIVPIFGYSELRRHYSQLDDNINSLLLVGFGGVIDLEAFLEIDPQEYVIDTDEKSGEQSFRRDIYVLDAHRPWNLDNIFGSQIIQCFDDGTVDDTLGEQKEAYYKLLELDEESGDDELSGDENDNNGGDDEATDADEVTDEDEEDEDETISNKRGNSSIGPNDLSKRKQRKKQIHEYEGVLEEYYSQGTTVVNSISAQIYSLLSAIGETNLSNLWLNILGTTSLDIAYAQVYNRLYPLLQDEVKRLTPSSRNSVKTPDTLTLNIQPDYYLFLLRHSSLYDSFYYSNYVNAKLSLWNENGKKRLHKMFARMGIPLSTAQETWLYMDHSIKRELGIIFDKNLDRYGLQDIIRDGFVRTLGYRGSISASEFVEALTALLEVGNSTDKDSVKINNDNNDDTDGEEEEDNSAQKLTNLRKRWVSNFWLSWDALDDRKVELLNRGIQLAQDLQRAIFNTGVAILEKKLIKHLRIYRLCVLQDGPDLDLYRNPLTLLRLGNWLIECCAESEDKQLLPMVLASIDENTDTYLVAGLTPRYPRGLDTIHTKKPILNNFSMAFQQITAETDAKVRIDNFESSIIEIRREDLSPFLEKLTLSGLL
In series [2], B2 yielded a stoichiometry N of 2.

As a reminder, the stoichiometry N is the number of molecules, sites or subunits per partner or assembly.
